Patent US20210063414A1, “METHODS FOR PREVENTING AND/OR TREATING BONE LOSS CONDITIONS BY MODULATING IRISIN” (Dana-Farber Cancer Institute, Inc., priority 2018, published 2021)

Target: T1, MLO-Y4 cell surface proteins (Mus musculus, UniProt Q8BJQ9)
T1 construct: endogenous in cells; host or cells: MLO-Y4
T1 sequence (Q8BJQ9 1-530): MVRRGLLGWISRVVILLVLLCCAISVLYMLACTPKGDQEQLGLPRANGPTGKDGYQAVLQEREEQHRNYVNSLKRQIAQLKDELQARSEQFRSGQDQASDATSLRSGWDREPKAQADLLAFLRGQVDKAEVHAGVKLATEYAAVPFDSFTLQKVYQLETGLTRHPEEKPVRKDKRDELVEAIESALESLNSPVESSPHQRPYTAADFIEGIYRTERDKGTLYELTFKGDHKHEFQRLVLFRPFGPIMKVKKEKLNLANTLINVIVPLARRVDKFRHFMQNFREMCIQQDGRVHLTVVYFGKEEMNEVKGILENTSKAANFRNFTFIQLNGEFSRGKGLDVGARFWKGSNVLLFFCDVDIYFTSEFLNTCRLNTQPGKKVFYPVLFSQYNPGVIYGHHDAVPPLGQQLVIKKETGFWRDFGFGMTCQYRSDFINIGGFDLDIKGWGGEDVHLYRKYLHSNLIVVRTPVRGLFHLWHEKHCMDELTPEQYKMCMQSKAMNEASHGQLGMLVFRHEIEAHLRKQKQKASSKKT
Experiment: Crosslinking/co-immunoprecipitation/mass spectrometry (TMT quantitative proteomics) to identify irisin receptors
Type: binding
Conditions: co-precipitated protein Csgalnact1 (CGAT1_MOUSE)
Outline: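 Mouse MLO-Y4 cells were switched to serum-free FreeStyle medium for 4 h, chilled, then exposed to 10 nM His-tagged irisin (or adipsin as control) for 20 min. Cells were crosslinked with 1.5 mM DTSSP (30 min, ice), and bound proteins were pulled down on Ni-NTA and eluted with 250 mM imidazole. Eluates were separated by SDS-PAGE, trypsin-digested in gel, TMT 6-plex labelled and quantified by MS3-based LC-MS/MS on an Orbitrap Fusion Lumos.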

B1: irisin: secreted cleaved form of FNDC5; recombinant human/mouse irisin with C-terminal his tag produced in HEK293 cells (protein)
chain: DSPSAPVNVTVRHLKANSAVVSWDVLEDEVVIGFAISQQKKDVRMLRFIQEVNTTTRSCALWDLEEDTEYIVHVQAISIQGQSPASEPVLFKTPREAEKMASKNKDEVTMKE
modifications: left off: small tags and cut ends
notes: secreted cleaved form of FNDC5; recombinant human/mouse irisin with C-terminal his tag produced in HEK293 cells
- TMT signal-to-noise ratio: 1300.88
- irisin/adipsin TMT signal-to-noise ratio: 0.536
